Literature values as cited in article PMC4376447.

Target: S100A10 (Homo sapiens) (UniProt P60903)
Assay: ITC

Sequence of UniProt P60903 (P60903 whole entry): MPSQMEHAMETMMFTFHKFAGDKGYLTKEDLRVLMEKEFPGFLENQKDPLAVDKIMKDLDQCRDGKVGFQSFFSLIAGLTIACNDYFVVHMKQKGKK

Annexin A2 N-terminus (from UniProt P07355)
Kd: 500 nM
